A short description of the series: yeast display, Sf9 membrane polyspecificity reagent, FACS + sequencing; frameworks hold sequencing errors. A digest of the protocol:
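Using colony PCR, genes from sorted yeast display clones were amplified, then sequenced on MiSeq at 2 × 250 and filtered by CDR length. The clones had been stained with 10% biotinylated, detergent-solubilized Sf9 membrane reagent for 1 hour at 4 °C and sorted by FACS into low and high (top ~1%) gates on anti-HA and streptavidin fluorescence. Polyreactivity labels come from the gate of origin.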
As for “QVQLVESGGGLVQAGGSLRLSCAASGSTFVYNAMGWSRQAPGKERELVAVITYRGGRTYYADSVKGRFTISRDNAKNTVYLQINSLKPEDTAVYYCAKRVYGSKVRGYDYWGQGTQVTVSS”, the “polyreactivity (PSR sort gate)” value is on record as “high polyreactivity”.

For the sequence “QVQLVESAGCLVQAGASLRLSCAASGRIISRNAMGWYRQAPGKERELVAAITWRGGSTYYADSVKGRFTISRDNAKNTVYLQMNSLKPEDTAVYYCNRDYRQYGYAYSGRYYWGQGTQVTVSS”, the “polyreactivity (PSR sort gate)” value is recorded as “high polyreactivity”.

With “QVQLVESGGGLVQAGGSLRLSCAASGSIFVGYAMGWYRQAPWKERELVAAISKRGGGTYYADSVKGRFTISRDNAKNTVYLHMNSLKPEDTAVYYCNAVPVHLDVASGYYYWGQGTQVTVSS”, the “polyreactivity (PSR sort gate)” value is “high polyreactivity”.

“QVQLVESGGGLVQAGGSLRLSCAASGSTFSHYAMGWYRQAPGKERELVATITGTGVRTYYADSVKGRFTISRDNAKNTVYLQMNSLKPEDTAVYYCAVPPSKRGAQAQPWMDYWGQGTQVTVSS”: the “polyreactivity (PSR sort gate)” value is “low polyreactivity”.

Turning to “QVQLVESGGGLVQAGGSLRLSCAASGIIFRRYAMGWYRQAPGKERELVAAITGSGGSTYYADSVKGRFTISRDNAKNTVYLQMNSLKPEDTAVYYCAAQSLLRFASSRYNSWGQGTQVTVSS”, the “polyreactivity (PSR sort gate)” value is “high polyreactivity”.

Consider “QVQLVESGGGLVQAGGSLRLSCAASGFTLYYYAMGWYRQAPGKERELVAAISYSGGTTYYADSVKGRFTISRDNAKYTVSLQMNSLKPEDTAVYYCAAEVGGYWADEYLGYDYWGQGTQVTVSS”, for which the “polyreactivity (PSR sort gate)” value is recorded as “low polyreactivity”.

For “QVQHVESGGGLVQAGGSLRLSCAASGRTFQLYDMGWYRQPHGKDRELVAGITITGGSTYYADSVKGRFTISRDIAKNTVYIQMISLKPEDTAVYYCAARKARPPFPHPFDYYWGQGTQVTVSS”, the “polyreactivity (PSR sort gate)” value is on record as “low polyreactivity”.

Regarding “QVQLVESGGGLVQAGGSLRLSCAASGRNFRHYAMGWDRQAPGKERELVAAIRWSGGSTYYADSVKGRFTISRDNAKNTVYLQMNSLKPEETAVYYCATRDAVGHRPSGPYQLYDYWGQGTQVTVSS”, the “polyreactivity (PSR sort gate)” value is “low polyreactivity”.

“QVQLVESGGGLVQAGGSLRLSCAASGRTLKLNAMGWYRQAPGKERELVAAISWRGGSTYYADSVKGRFTISRDNAKNTVYLQMNSLKPEDTAVYYCAAEATAGFWSYGTYDYWGQGTQVTVSS”: the “polyreactivity (PSR sort gate)” value is listed as “high polyreactivity”.

As to “QVQLVESGGRLVQAGGSLRRSCAASGSTFASNAMRWYRPAPGKERELVAAITSRDASTYYADSVKGRFTISRDNAKNTVYLQMNSLKPEDTAVYYCATDGYSPAAFDYWGQGTQVTVSS”, the “polyreactivity (PSR sort gate)” value is “low polyreactivity”.

As to “QVQLVESGGGLVQAGGSLRLSCAASGSTFYPYAMGWYRQATGKERELVAAISSGGSTSYADSVKGRFTISRDNAKNTVYLQMNSLKPEDTAVYFCNASSPGAVPVYDYDYWGQGTQVTVSS”, the “polyreactivity (PSR sort gate)” value was “low polyreactivity”.

As for “QVQLVESGGGVVQAGGSLRLSCAASGLIFRRYAMGWSRQAPGIDRELVAAISGNGGSTYYADSVKGRFTISRDNAKNTVYVQMTCLKPEDTAVYYCAARSLGIYNYWGQGTQVTVSS”, the “polyreactivity (PSR sort gate)” value was “high polyreactivity”.

Regarding “QVQLVESGGGLVQAGGSLRLSCAASGIIFYEYVMGWYRQAPGKEREVVATISSIGGATYYADSVKGRFTISRDNAKNTVYLQMNSLKPEDTAVDYCAADPEPVVARGGNWYGDDDWGQGTQVTVSS”, the “polyreactivity (PSR sort gate)” value was “high polyreactivity”.

Regarding “QVQLVESGGGLVQAGGSLRLSCAASGRIFASYAMGWYRQAPGKERELVAAITRSGGRTYYADSVKGRFTISRDNAKNTVYLQMNSLKPADTAVDYCAVDTVTRTVLVYGDRNDSWGQGTQVTVSS”, the “polyreactivity (PSR sort gate)” value is “high polyreactivity”.

Turning to “QDQLVESGGGLVQAGGSIRLSCAASGSILRSNALGWYRQAHVQERELVAAITFNGGSTYADSVKGRFTISRDNAKNNVYLQMNSLKPVDTSVSYCATGDGPCLFDYWGQGTQVTVSS”, the “polyreactivity (PSR sort gate)” value was “low polyreactivity”.

In the case of “QVQLVESGGGLVQAGGSLRLSCAASGRTFLYNAMGWYRQAPGKERELVAAISWSGGSTYYADSVKGRFTISRDNAKNTVYLQMNSLKPEDTAVYYCAAYWVWPGRYWYDYWGQGTQVTVSS”, the “polyreactivity (PSR sort gate)” value was “high polyreactivity”.

In the case of “QVQLVESCGGLVQAGGSLRLSCAASGRTFSLYTMGWYRQAPGKERELVATIRSRGGSTYYADSVKGRFTISRDNAKNTFYLQMNSLIPEDTAVYYCATVLRGPFLGWHGGPMYHWGQGTQVTVSS”, the “polyreactivity (PSR sort gate)” value is recorded as “low polyreactivity”.

With “QVQLVESGGGLVQAGGSLRLSCAASGFIFSGYAMGWYRQAPGKERELVAAIRWNGGRTYYADSVKGRFTISRDNAKNTVYLQMNSLKPEDTAVYYCAAGSGRDYGYRYFFWRYDYWGQGTQVTVSS”, the “polyreactivity (PSR sort gate)” value is “high polyreactivity”.

On to “QVQLVESGGGLVQAGGSLRLSCAASGRIFGIYAMGGSRQAPGKERELVASITDGTITYYADSVKGRFTISRDNAKNTVYLQMNSLKPEDTAVYYCAAGTQAHAYVVRPIEMDYWGQGTQVTVSS”, for which the “polyreactivity (PSR sort gate)” value is “low polyreactivity”.

“QVQLVESGGGLVQAGGSLRLSCAASGSIFRRYAMGWYRQAPGKEREFVAAITGSGGRTYYADSVKGRFTISRDNAKNTVYLQMNSLKPEDTAVYYCAARRRDRVTYYYWGQGTQVTVSS”: the “polyreactivity (PSR sort gate)” value was “high polyreactivity”.

In the case of “QVQLVESGGGLVQAGGSLRLSCAASGRSFYTNVMGWYRQAPGKERELVAAISSAGTTYYADSVKGRFTISRDNAKNTVYLQMNSLKPVDSEVYYCAADQVAYYGFDYWGQGTQVTVST”, the “polyreactivity (PSR sort gate)” value is “low polyreactivity”.

“HVQLVESGGGLVQAGGSLRLSCAASGSIFSGNAMGWYRQAPGKERELVAAISYSDGSTYYADSVKGRFTISRDNAKNTVYLQMNSLKPEDTAVYYCAADGYPYTYDYWGQGTQVTVST”: the “polyreactivity (PSR sort gate)” value is “low polyreactivity”.

In the case of “QVQLVESGGGLVQAGGSLRLSCAASGFIIVNNAMGWYRQAPGKERELVATISRGGSTNYADSVKGRFTISRDNAKNTVYLQMNSLKPEDTAVYYCNARRSVKVYGVDYWGQGTQVTVSS”, the “polyreactivity (PSR sort gate)” value is listed as “high polyreactivity”.

Regarding “QGQLVESGGGLVQAGGSLRLSCAASGGIFGNYAMGGYRQAPGKERELVAVIDSSDGSTHYADSVKGRFSISRDNAKTTVYLQINSLKAEDTAVYYCATLGFWNYWTFDYWGQGTQVTVSS”, the “polyreactivity (PSR sort gate)” value is reported as “low polyreactivity”.

For the sequence “QVQVVESGGGLVQAGGSLRLSCAASGSIFKFNAMGWYRQAPGKERELVAAISYSGGNTDYADSVKGRFTISRDNAKNTVYLQMNSLKPEDTAVYYCAATSYLVLTLEYDYWGQGTQVTVSS”, the “polyreactivity (PSR sort gate)” value is given as “low polyreactivity”.

With “QVQLVESGGGLVQAGGSLRLSCAASGRTFVGYTMGWYRQAPGKERELVAAIDLSDGSTSYADSVKGRFTISRDNAKNSVYLQMNSLKPEDTAVYYCAKTWANVYAGAHDYWGQGTQVTVSS”, the “polyreactivity (PSR sort gate)” value is “low polyreactivity”.

On to “QFQLVESGGGLVQEGGSLRLSCAASGFTFYYYTMGWYRQAPGKERELVAAITWRGGSTNYADSVKGRFTISRDNAKNTVYLQMNSLKPEDTAVYYCAAVTYWFWPGMDYWGQGTQVTVSS”, for which the “polyreactivity (PSR sort gate)” value is “low polyreactivity”.

For “QVQLVESGGGLVQAGGSLRLSCAPSGSTFYSYVMGWYRQATGKERELVAVISNDGSTNYADSVKGRFTISRDNAKNTVYLQMNSLKPEDTAVYYCAALKFVRAYRYYYWGQGTQVTVSS”, the “polyreactivity (PSR sort gate)” value was “low polyreactivity”.

Regarding “QVQLVESGGGLVQAGGSLRLSCAASGSIFDGNGMGWSRQAPGKERELVASISGDGSTNYADSVKGRFTISRDNAKNTVYLQMNSLKPEDTAVYYCATDDPLSQINEQGMDYWGQGTQVTVSS”, the “polyreactivity (PSR sort gate)” value was “low polyreactivity”.

Take “QVQLVESGGGLVQAGGSLRLSCAASGFIFSTYAMGWYRQAPGKERELVASTSRRAGRTYYADSVKGRFTISRDNAKNTVYLQMNSLKPEDTAVYYCAAEARVGYHFQILDYWGQGTQVTVSS”: the “polyreactivity (PSR sort gate)” value is on record as “high polyreactivity”.

With “QVQHVDSGGGLVQAGGSLRLSCAASGSSFGTYDMGWYRQAPGKERELVARISGGGSTYYADSVKGRLTISRDNAKNTVYFQMNRLKPEDTAVYYCNVRKWAYWSHAFIYTYWGQGTQVTVSS”, the “polyreactivity (PSR sort gate)” value was “high polyreactivity”.

Regarding “QVQLVESGGGLVQAGASLRLSCAASGIIYAYNAMGWYRPAPGKERELVATITDSGGSTSYADSVKGRFTISRDNAKNTVYLQMNSLKPEDTAVYYCAVLPVYWYWRNYVYLSGYDYWGQGTQVTVSS”, the “polyreactivity (PSR sort gate)” value is “low polyreactivity”.

As for “QVQLVESGGGLFQAGGSLRLSCAASGSIFDVNAMGWYRQAPGKEREFVAAISDSGGSTYYADSVKGRFTMSRDNAKNTVSLPMNSLKPEDTAVYYCNADWSWYNYYDFDYWGQGTQVTVSS”, the “polyreactivity (PSR sort gate)” value is listed as “low polyreactivity”.

Turning to “QVQLVESGGGLVQAGGSLRLSCAASGFTFGYYAMGWYRQAPGKERELVAAITYDGDITYYADSVKGRFTISRDNAKNTVYLQMNSLKPEDTAVYYCAADTVYRSYYWGQGTQVTVSS”, the “polyreactivity (PSR sort gate)” value was “low polyreactivity”.

For “QVQLVESGGGLVQAGGSLRLSCAASGRIFSRYAMGWYRQAPGKERELVATITISGGSTYYADSVKGRFTISRDNAKNTVYLQMNSLKPEDTAVYYCAAETTASYYKRTDDYDYWGQGTQVTVSS”, the “polyreactivity (PSR sort gate)” value is “low polyreactivity”.

For “QVQLVESGGGLVQAGGSLRLSCAASGYTFRFNAMGWYRQAPGKEREFVAAIDFGGAGTYYADSVKGRFTISRDNAKNTVYLQMNSLKPEDTAVYYCNARDGVTTEFDYWGQGTQVTVSS”, the “polyreactivity (PSR sort gate)” value is recorded as “low polyreactivity”.

Consider “QVQLVESGGGLVQAGGSLRLSCAASGRIFLDYVMGWYRQAPGKERELVAAISWSGDRTDYADSVKGRFTISRDNAKNTVYLQMNSLKPEDTAVYYCASTWYFAYSDDYKFDYWGQGTQVTVSS”, for which the “polyreactivity (PSR sort gate)” value is “low polyreactivity”.

Regarding “QVQLVESGGGLVQAGGSLPLSCAASGSTFLAYAMGWYRQAPGKERELVAAITWNSGSSTFYADSVKGRFTISRDNAKNTVYLQMNSLKPEDTAVYYCNADVPSPAYYGDGTPYREDNYWGQGTQVTVSS”, the “polyreactivity (PSR sort gate)” value is on record as “low polyreactivity”.

“QVQLVESGGGLVQAGGSLRLSCAASGSTSRGNAMAWYRKSPGKERELVATISQSGGNTFYADSVKGRFTISLDNAKNTVYLQMNSLNPEDTAVYYCAAGRYWFAWYDYWGQGTQVTVSS”: the “polyreactivity (PSR sort gate)” value was “high polyreactivity”.

Consider “QVQHVESGGGIVQAGGSLRLSCAASGLTITAYVMGWYRQAPGKERELVAAIRNSGGSTYYADSVKGRFTISRDNAKNTVYLQMISLKPEDTAVYYCAKQTSYWSRGYDYWGQGTQVTVSS”, for which the “polyreactivity (PSR sort gate)” value is reported as “low polyreactivity”.
